Numbering of substitutions follows the chain as printed. Names may count otherwise.
B1: biotinylated Avitag-MBP-Atf7IP(574-666) (domain or fragment, human, UniProt Q6VMQ6 574-666, looked up)
chain: EEEYEAEFQVKITAKGDINQKLQKVIQWLLEEKLCALQCAVFDKTLAELKTRVEKIECNKRHKTVLTELQAKIARLTKRFEAAKEDLKKRHEH
modifications: biotin on the AviTag (cultures supplemented with 40 uM biotin, birA co-expressed)
notes: The methods describe only the Avitag-MBP form as purified on its own; also called MBP-Atf71P; source: E. coli, co-expressed with birA and biotin, purified (MBPTrap, Superdex 200); not shown: AviTag, N-terminal, kept; MBP, N-terminal, kept
B2: his-sumo-Atf7IP(574-666) (domain or fragment, human, UniProt Q6VMQ6 574-666, looked up)
chain: B1 chain
notes: not shown: His6, N-terminal, kept; SUMO, N-terminal, kept
B3: MBP-Atf7IP(574-666) C608S C612S (domain or fragment, human, UniProt Q6VMQ6 574-666, looked up)
chain: B1 chain with C35S, C39S
notes: The methods name the synthesised vector without the MBP tag on Atf7IP; the results call the protein MBP-Atf7IP; also called Atf7IP(C631); source: also used in isolation; not shown: MBP, N-terminal, kept
B4: his-sumo-Setdb1(Δα1; residues 35-115) (domain or fragment, human, UniProt Q15047 35-115, looked up)
chain: ISMEELRHFIDEELEKMDCVQQRKKQLAELETWVIQKESEVAHVDQLFDDASRAVTNCESLVKDFYSKLGLQYRDSSSEDE
notes: source: E. coli, purified (HisTrap, dialysis); not shown: His6, N-terminal, kept; SUMO, N-terminal, kept
B5: his-sumo-Setdb1(Δα1-α2; residues 50-115) (domain or fragment, human, UniProt Q15047 50-115, looked up)
chain: KMDCVQQRKKQLAELETWVIQKESEVAHVDQLFDDASRAVTNCESLVKDFYSKLGLQYRDSSSEDE
notes: as for B4
B6: Atf7IP2(297-388), his-sumo- or Strep-tagged (domain or fragment, UniProt Q5U623 297-388, looked up)
chain: MKTSEQINENICVSLERQTAFLEQVRHLIQQEIYSINYELFDKKLKELNQRIGKTECRNKHEGIADKLLAKIAKLQRRIKTVLLFQRNCLKP
notes: Atf7IP2, coiled coil region, residues 297-388; Two differently tagged copies of one fragment, written as one molecule; in the mixed trimer with Atf7IP only the Strep-tagged copy was there; also called his-sumo-Atf7IP2(297-388); Strep-Atf7IP2(297-388); not shown: His6-SUMO (one copy) or Strep (the other copy), N-terminal, kept

Assays:
[1] = biological target: the molecule itself; experiment: SEC; gel filtration of isolated MBP-Atf7IP(574-666) with and without Tween 20 in the buffer
his-sumo-Setdb1(2-115) = biological target: T1, his-sumo-Setdb1(2-115) (human, UniProt Q15047 2-115); experiment: AlphaScreen or HTRF; AlphaScreen His-Detection kit: nickel chelate acceptor beads and streptavidin donor beads; both proteins at 20 nM, or one at 20 nM and the other 0 to 20 nM; 50 mM MOPS, 50 mM CHAPS, 50 mM NaF, 100 ug/ml BSA, pH 7; room temperature; triplicates; conditions: both partners purified
T1 construct: also called his-sumo-Setdb1(2-114); source: E. coli (BL21DE3 or Rosetta2), purified (HisTrap, dialysis); not shown: His6, N-terminal, kept; SUMO, N-terminal, kept

GST-Setdb1(2-115) = biological target: T2, GST-Setdb1(2-115) (human, UniProt Q15047 2-115); experiment: pull-down; 0.5 uM GST-fusion immobilised on glutathione Sepharose beads; 1.5 uM hCrm1 with or without 4.5 uM RanGTP; with or without pre-incubation with MBP-Atf7IP(574-666) (3-fold or 15-fold excess); 20 mM HEPES 7.4, 110 mM potassium acetate, 2 mM magnesium acetate, 10% glycerol, 2 mM DTT, 0.005% Tween20; Coomassie SDS-PAGE; conditions: both partners purified
T2 construct: source: E. coli, purified (GSTTrap, Superdex 200); not shown: GST, N-terminal, kept

[2] = biological target: the molecule itself; experiment: native MS; co-expressed and purified MBP-Setdb1(2-115)/his-sumo-Atf7IP(574-666) complex, 500 nM, 400 mM ammonium acetate pH 7.9, 1 mM DTT; Q Exactive UHMR; HCD fragmentation
MBP-Setdb1(2-115) [3] = biological target: T3, MBP-Setdb1(2-115) (human, UniProt Q15047 2-115); experiment: SEC-MALS; co-expressed and purified complex, about 400 ul at about 1 mg/ml, Superdex 200 Increase 10/300; conditions: both partners purified
T3 construct: The methods list the MBP tag of the vectors as AviTag-Mbp; also called MBP-Setdb1(2-114); not shown: MBP, N-terminal, kept

[4] = biological target: the molecule itself; experiment: cross-linking; disulfide cross-linking of MBP-Atf7IP(574-666) with only C631, in isolation; SDS-PAGE with and without BME
[5] = biological target: B1; experiment: AlphaScreen or HTRF; AlphaScreen His-Detection kit: nickel chelate acceptor beads and streptavidin donor beads; both proteins at 20 nM, or one at 20 nM and the other 0 to 20 nM; 50 mM MOPS, 50 mM CHAPS, 50 mM NaF, 100 ug/ml BSA, pH 7; room temperature; triplicates; conditions: both partners purified
MBP-Setdb1(2-115) [6] = biological target: T3, MBP-Setdb1(2-115); experiment: pull-down; three tagged proteins co-expressed in E. coli, complex purified sequentially by the his tag and then the strep tag; SDS-PAGE; conditions: partners not purified

B1: binds [1]; binds (his-sumo-Setdb1(2-115)); binds (GST-Setdb1(2-115)).

With B2 the binding result [2] was “binds” and the “stoichiometry N” value (MBP-Setdb1(2-115) [3]) was 2 Atf7IP per Setdb1.

B3: binds [4].

B4 was tested, and the “binding, percent of WT” value [5] was ~80 % of WT.

For B5, the “binding, percent of WT” value [5] was ~30 % of WT.

With B6 the “stoichiometry N” value (MBP-Setdb1(2-115) [6]) was 2 Atf7IP2 per Setdb1.

From paper PMC12167477, “Setdb1 and Atf7IP form a hetero-trimeric complex that blocks Setdb1 nuclear export” (The Journal of Biological Chemistry, 2025)
